Test results published in the supplement of paper PMC9233669.
This sample holds only a part of the variants without activity.

Tests used:
biotinyl-Phe-oxazolone = experiment: self-aminoacylation, catalytic enhancement (BFO) (fold over background); higher = more active; k-Seq, kA / k0A0; sequences stand for … in GGGAAUGGAUCCACAUCUACGAAUUC…UUCACUGCAGACUUGACGAAGCUG
Outline: (§1)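 Catalytic enhancement equals the median kA over the uncatalyzed rate, the latter read from the low-activity peak of a bimodal Gaussian fit. Values of kA came from fitting each sequence's fraction reacted to a pseudo-first-order model, with 1000 bootstraps. Reacted RNA was captured with streptavidin and quantified by triplicate qPCR and Illumina sequencing after 90 minutes at room temperature with 2–1250 μM biotinyl-aminoacyl-oxazolone and 0.43 μM mutagenized RNA pools bearing a 21-nt variable region.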

biotinyl-Ile-oxazolone = experiment: self-aminoacylation, catalytic enhancement (BIO) (fold over background); higher = more active; k-Seq, kA / k0A0; sequences stand for … in GGGAAUGGAUCCACAUCUACGAAUUC…UUCACUGCAGACUUGACGAAGCUG
Outline: as §1

biotinyl-Met-oxazolone = experiment: self-aminoacylation, catalytic enhancement (BMO) (fold over background); higher = more active; k-Seq, kA / k0A0; sequences stand for … in GGGAAUGGAUCCACAUCUACGAAUUC…UUCACUGCAGACUUGACGAAGCUG
Outline: as §1

biotinyl-Val-oxazolone = experiment: self-aminoacylation, catalytic enhancement (BVO) (fold over background); higher = more active; k-Seq, kA / k0A0; sequences stand for … in GGGAAUGGAUCCACAUCUACGAAUUC…UUCACUGCAGACUUGACGAAGCUG
Outline: as §1

biotinyl-Leu-oxazolone = experiment: self-aminoacylation, catalytic enhancement (BLO) (fold over background); higher = more active; k-Seq, kA / k0A0; sequences stand for … in GGGAAUGGAUCCACAUCUACGAAUUC…UUCACUGCAGACUUGACGAAGCUG
Outline: as §1

biotinyl-Trp-oxazolone = experiment: self-aminoacylation, catalytic enhancement (BWO) (fold over background); higher = more active; k-Seq, kA / k0A0; sequences stand for … in GGGAAUGGAUCCACAUCUACGAAUUC…UUCACUGCAGACUUGACGAAGCUG
Outline: as §1

Sequence | self-aminoacylation (biotinyl-Phe-oxazolone) | self-aminoacylation (biotinyl-Ile-oxazolone) | self-aminoacylation (biotinyl-Met-oxazolone) | self-aminoacylation (biotinyl-Val-oxazolone) | self-aminoacylation (biotinyl-Leu-oxazolone) | self-aminoacylation (biotinyl-Trp-oxazolone)
CCACACUUCACGGAAUCGGUC [Fam1B.1 aminoacylation ribozyme variant] | 1.01 | 1.16 | 1.14 | 1.39 | 1.65 | 0.915
UAGUUUGCUAAUAGUCGCUAG [Fam3.1 aminoacylation ribozyme variant] | 1.68 | 1.18 | 1.01 | 1.13 | 1.13 | 1.08
AAGUAUGAUAAUAGUCGCAAG [Fam3.1 aminoacylation ribozyme variant] | 1.35 | 1.22 | 1.13 | 1.28 | 1.1 | 1.2
GAGUUUGCUAAUAGGCGCAAG [Fam3.1 aminoacylation ribozyme variant] | 1.4 | 0.982 | 0.961 | 0.836 | 1.02 | 1.35
CUACUUCAAACCAUCGGUCUC [Fam1A.1 aminoacylation ribozyme variant] | 0.936 | 0.708 | 0.555 | 0.72 | 0.496 | 0.731
AUUCACCUAGCUCAUCGGGUA [Fam2.2 aminoacylation ribozyme variant] | 11.2 | 2.08 | 2.03 | 2.54 | 2.41 | 2.53
UUUCACCGAGGUCAUCGGGUG [Fam2.2 aminoacylation ribozyme variant] | 44.3 | 4.52 | 7.19 | 5.17 | 6.07 | 6.08
CCACACCUCAAGCAAGCGGUC [Fam1B.1 aminoacylation ribozyme variant] | 1.27 | 1.34 | 1.02 | 1.21 | 0.921 | 1.32
CCACACAUCAAGCACUCGGUC [Fam1B.1 aminoacylation ribozyme variant] | 0.805 | 0.935 | 1.02 | 1.18 | 0.724 | 0.94
CUACUGCAAACAAUCGGUCUU [Fam1A.1 aminoacylation ribozyme variant] | 1.06 | 0.974 | 0.963 | 0.836 | 0.953 | 0.857
AGGUUUGCUAAUAGUCGCAAC [Fam3.1 aminoacylation ribozyme variant] | 1.52 | 1.26 | 1.15 | 1.05 | 1.13 | 1.43
CCACACGUCUAGCAAUCGGUC [Fam1B.1 aminoacylation ribozyme variant] | 0.972 | 1.01 | 0.9 | 1.15 | 0.937 | 0.768
CUACUUCAAACAAUAGGUCGG [Fam1A.1 aminoacylation ribozyme variant] | 0.7 | 0.792 | 0.643 | 0.693 | 0.754 | 0.676
AUCACCCUGGUCAUCGAGUGA [Fam2.1 aminoacylation ribozyme variant] | 154 | 10.6 | 27.8 | 11.3 | 27 | 28.4
AUUCAUCUAGGUCUUCGGGUG [Fam2.2 aminoacylation ribozyme variant] | 37.4 | 3.75 | 4.49 | 3.66 | 6.24 | 4.84
AAAUUUGCCAAUAGUCGCAAG [Fam3.1 aminoacylation ribozyme variant] | 2.17 | 1.77 | 1.69 | 1.65 | 1.76 | 2.14
AUUACCCUCGUAAUCGAGUGA [Fam2.1 aminoacylation ribozyme variant] | 120 | 6.62 | 16 | 7.73 | 17.2 | 21.7
AUUAGCCCGGUCAUCGAGUGA [Fam2.1 aminoacylation ribozyme variant] | 55.9 | 3.45 | 6.23 | 3.57 | 6.64 | 7.74
AUUCAACUAGGUCAUCGGAUG [Fam2.2 aminoacylation ribozyme variant] | 0.801 | 0.675 | 0.66 | 0.708 | 0.772 | 0.549
CUACUUCAAACAAUCGGUUGG [Fam1A.1 aminoacylation ribozyme variant] | 3.55 | 0.843 | 0.619 | 0.812 | 0.788 | 1.82
UUUUCCCUGGUCAUCGAGUGA [Fam2.1 aminoacylation ribozyme variant] | 16.5 | 5.39 | 11.1 | 5.81 | 11.1 | 14.3
